Experimental data reported in the supplement of paper PMC7877785.
± gives the uncertainty stated by the source.

Test: self-splicing fitness, log relative to wild type (ln ratio); higher = more splicing; Tetrahymena group I intron in knt gene, E. coli kanamycin selection, DiMSum; sequences stand for … in CUCUCU…GGAGGGAAAAGUUAUCAGGCAUGCACCUGGUAGCUAGUCUUUAAACCAAUAGAUUGCAUCGGUUUAAAAGGCAAGACCGUCAAAUUGCGGGAAAGGGGUCAACAGCCGUUCAGUACCAAGUCUCAGGGGAAACUUUGAGAUGGCCUUGCAAAGGGUAUGGUAAUAAGCUGACGGACAUGGUCCUAACCACGCAGCCAAGUCCUAAGUCAACAGAUCUUCUGUUGAUAUGGAUGCAGUUCACAGACUAAAUGUCGGUCGGGGAAGAUGUAUUCUUCUCAUAAGAUAUAGUCGGACCUCUCCUUAAUGGGAGCUAGCGGAUGAAGUGAUGCAACACUGGAGCCGCUGGGAACUAAUUUGUAUGCGAAAGUAUAUUGAUUAGUUUUGGAGUACUCGUGGUCG
In short: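 DiMSum derived fitness as the error-weighted combination of fold changes across replicates, kanamycin versus no kanamycin, normalised to wild type. E. coli BL21(DE3) held the library, which randomised all eight P1ex-region intron nucleotides within the knt kanamycin-resistance gene on pET-22b(+). Six replicate transformations grew overnight at 37°C or 30°C on LB agar with or without 25 μg/mL kanamycin, also containing 100 μg/mL carbenicillin, 50 μM IPTG and 0.2% rhamnose, and pooled colonies were amplicon-sequenced on an Illumina HiSeq 2500.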

Sequence	self-splicing fitness (ln) (30 °C)	self-splicing fitness (ln) (37 °C)
CUACAGCAAUAUUACGCAAC	-3.66 ± 0.36	-3.03 ± 0.29
CUACAGCAAUAUUACGCAAG	-2.61 ± 0.15	-1.45 ± 0.19
CUACAGCAAUAUUACGCACU	-3.52 ± 0.21	-3.03 ± 0.4
CUACAGCAAUAUUACGCAGG	-2.62 ± 0.13	-3.06 ± 0.24
CUACAGCAAUAUUACGCCGA	-2.29 ± 0.18	-3.15 ± 0.43
CUACAGCAAUAUUACGCCGC	-3.76 ± 0.22	-3.62 ± 0.39
CUACAGCAAUAUUACGCGGG	-2.27 ± 0.094	-2.56 ± 0.12
CUACAGCAAUAUUACGGAUG	-0.683 ± 0.056	-0.187 ± 0.076
CUACAGCAAUAUUACGGCAC	-3.29 ± 0.23	-2.45 ± 0.32
CUACAGCAAUAUUACGGUAA	-0.706 ± 0.066	-0.344 ± 0.076
CUACAGCAAUAUUACGGUCU	-4.27 ± 0.19	-2.13 ± 0.16
CUACAGCAAUAUUACGGUUG	-1.78 ± 0.078	-1.73 ± 0.091
CUACAGCAAUAUUACGUAUU	-4.19 ± 0.2	-2.94 ± 0.18
CUACAGCAAUAUUACGUCAG	-1.55 ± 0.12	-1.18 ± 0.13
CUACAGCAAUAUUACGUCAU	-4.33 ± 0.22	-3.72 ± 0.19
CUACAGCAAUAUUACGUCGC	-4.05 ± 0.3	-2.11 ± 0.23
CUACAGCAAUAUUACGUGCA	-3.73 ± 0.35	-2.5 ± 0.18
CUACAGCAAUAUUACGUGGC	-3.68 ± 0.29	-2.44 ± 0.32
CUACAGCAAUAUUACGUUAG	-3.78 ± 0.23	-2.54 ± 0.14
CUACAGCAAUAUUACGUUCG	-0.275 ± 0.063	0.0364 ± 0.083

Sequence	self-splicing fitness (ln) (30 °C)	self-splicing fitness (ln) (37 °C)
CUACAGCAAUAUUACGUUGU	-3.66 ± 0.14	-3.95 ± 0.21
CUACAGCAAUAUUACGUUUA	-3.39 ± 0.22	-2.86 ± 0.19
CUACAGCAAUAUUACGUUUU	-4.17 ± 0.18	-3.26 ± 0.22
CUAGAGCAAUAUUACGAAAA	-1.94 ± 0.44	
CUAGAGCAAUAUUACGAAGG	-1.22 ± 0.12	-0.403 ± 0.15
CUAGAGCAAUAUUACGACCC	-1.62 ± 0.38	
CUAGAGCAAUAUUACGACCG	0.13 ± 0.13	0.707 ± 0.18
CUAGAGCAAUAUUACGACGG	-0.119 ± 0.12	0.393 ± 0.17
CUAGAGCAAUAUUACGAGCG	0.131 ± 0.1	0.74 ± 0.12
CUAGAGCAAUAUUACGCCUU	-3.42 ± 0.19	-0.994 ± 0.24
CUAGAGCAAUAUUACGCGAA	-3.1 ± 0.38	-2.09 ± 0.43
CUAGAGCAAUAUUACGCUAA	-3 ± 0.23	-2.49 ± 0.25
CUAGAGCAAUAUUACGCUCU	-2.43 ± 0.28	-2.8 ± 0.43
CUAGAGCAAUAUUACGGCCG	-0.252 ± 0.15	0.456 ± 0.27
CUAGAGCAAUAUUACGGCGU	-4.02 ± 0.26	-0.833 ± 0.16
CUAGAGCAAUAUUACGGGGU		-2.6 ± 0.3
CUAGAGCAAUAUUACGGGUC	-4.31 ± 0.25	-3.61 ± 0.39
CUAGAGCAAUAUUACGGUGA	-3.58 ± 0.16	-1.46 ± 0.17
CUAGAGCAAUAUUACGUAGC		-1.49 ± 0.27
